In IntAct's records for PubMed 21057110:

B1: Arf-GAP with dual PH domain-containing protein 1 (Homo sapiens), O75689 (parent)
chain: MAKERRRAVLELLQRPGNARCADCGAPDPDWASYTLGVFICLSCSGIHRNIPQVSKVKSVRLDAWEEAQVEFMASHGNDAARARFESKVPSFYYRPTPSDCQLLREQWIRAKYERQEFIYPEKQEPYSAGYREGFLWKRGRDNGQFLSRKFVLTEREGALKYFNRNDAKEPKAVMKIEHLNATFQPAKIGHPHGLQVTYLKDNSTRNIFIYHEDGKEIVDWFNALRAARFHYLQVAFPGAGDADLVPKLSRNYLKEGYMEKTGPKQTEGFRKRWFTMDDRRLMYFKDPLDAFARGEVFIGSKESGYTVLHGFPPSTQGHHWPHGITIVTPDRKFLFACETESDQREWVAAFQKAVDRPMLPQEYAVEAHFKHKP

Variants of: B1
Details: with ki13b_human KIF13B

| Variant | effect of a mutation on the interaction |
| --- | --- |
| Y211G | disrupting interaction strength |
| Y211R | disrupting interaction strength |
